Reference: patent US20250027068
Residue numbers refer to the chain shown, from its start.

Target: pooled human IgG (human IgG1, 2, 3 and 4)

B1: PRT-474 (protein)
chain: MVTSVWTKGVTPPTDFRKIVDGNIAYYHAPYKAGQGWYDITKAFDGGDDLLCGAATAGNMLHWWFDQNKEQIENYLKKHPEKQKINFNGEQMFDVKEAIDTKDSQTNSELFNYFKEKAFPYLSTKHLGVFPDHVIDMFINGYRLSLTNHGPTPVKRGSKDPRGGIFDAVFTRGDQSKLLTNRHDLKNKTLKEISDLIKQELTEGKALGISHTYANVRINHVINLWGADFDAEGNLEAIYVTDSDSNASIGMKKYFVGVNSNGKVAISAKEIEEDNIGAQVLGLFTLSTGQDIWNQTNLEHHHHHH
- Enzyme Activity Endpoint Assay: Fab′2: 462 ng/µL
- Enzyme Activity Endpoint Assay: Fc: 156 ng/µL
- Enzyme Activity Endpoint Assay: IgG: 0 ng/µL
- Enzyme Activity Endpoint Assay: scIgG: 229 ng/µL

B2: PRT-464 (protein)
chain: MVTSVWTKGVTPPANFTQGEDVFHAPYVANQGWYDITKAFDGGDDLLCGAATAGNMLHWWFDQNKDQIERYLKEHPEKQKINFNGEQMFDVKEAIDTKDSQTNSELFNYFKEKAFPYLSTKHLGVFPDHVLDMFINGYRLSLTNHGPTPVKEGSKDPRGGIFDAVFTRGDQSKLLTSRHDLKNKTLKEISDLIKQELTEGKALGLSHTYANVRINHVINLWGADFDSEGNLKAIYVTDSDSNASIGMKKYFVGVNSAGKVAISAKEIKEDNIGAQVLGLFTLSTGQDIWNQTNLEHHHHHH
- Enzyme Activity Endpoint Assay: Fab′2: 0 ng/µL
- Enzyme Activity Endpoint Assay: Fc: 58 ng/µL
- Enzyme Activity Endpoint Assay: IgG: 0 ng/µL
- Enzyme Activity Endpoint Assay: scIgG: 0 ng/µL

B3: PRT-483 (protein)
chain: MVTSVWTKGVTPPTDFIKGEDVFHAPYKAGQGWYDITKTFNGKDNLLCGAATAGNMLHWWFDQNKDQIEAYLKEHPEKQKIIFNNQELFDLKAAIDTKDDQTNSKLFEYFKEKAFPYLSTKHLGVFPDHVLDMFINGYRLSLTNHGPTPVKEGSKDKRGGIFDAVFTRGVQSKLLTSRHDLKNKTLKEISDLIKQELTEGKALALSHTYANVRINHVINLWGADFDSNGNLEAIYVTDSDTNASIGMKKYFVGVNSAGKVAISAKEIEDDNIGAQVLGLFTLSTGQDIWNQTNLEHHHHHH
- Enzyme Activity Endpoint Assay: Fab′2: 1260 ng/µL
- Enzyme Activity Endpoint Assay: Fc: 459 ng/µL
- Enzyme Activity Endpoint Assay: IgG: 0 ng/µL
- Enzyme Activity Endpoint Assay: scIgG: 0 ng/µL

B4: PRT-487 (protein)
chain: B3 chain with A70R, D100S, N103D, A204G, N228E, E232K, E268K, D269E
- Enzyme Activity Endpoint Assay: Fab′2: 0 ng/µL
- Enzyme Activity Endpoint Assay: Fc: 22 ng/µL
- Enzyme Activity Endpoint Assay: IgG: 0 ng/µL
- Enzyme Activity Endpoint Assay: scIgG: 0 ng/µL

B5: PRT-500 (protein)
chain: MVTSVWTKGVTPPADFTQGEDVFHAPYVANQGWYDITKAFDGGDDLLCGAATAGNMLHWWFDQNKEYIEAYLKKHPEKQKIMFGDQELLDVRKAINTKGSQKNSELFNYFRDKAFPNLSARRLGVMPDLVLDMFINGYYLNVTKTQTTDVNRTYQEKDKRGGIFDAVFTRGDQSKLLTSRHDLKNKGLKEISDLIKQELTEGKALGLSHTYANVRINHVINLWGADFDSDGNLKAIYVTDSDSNASIGMKKYFVGVNSAGKVAISAKEIKEDNIGAQVLGLFTLSTGQDIWNQTNLEHHHHHH
- Enzyme Activity Endpoint Assay: Fab′2: 25 ng/µL
- Enzyme Activity Endpoint Assay: Fc: 30 ng/µL
- Enzyme Activity Endpoint Assay: IgG: 0 ng/µL
- Enzyme Activity Endpoint Assay: scIgG: 0 ng/µL

B6: PRT-451 (protein)
chain: MVTSVWTKGVTPPANFRKIVDGNIAYYHAPYKANQGWYDITKTFNGKDDLLCGAATAGNMLHWWFDQNKDQIEAYLKEHPEKQKINFNGEQMFDVKEAIDTKDDQTNSKLFEYFKEKAFPYLSTKHLGVFPDHVLDMFINGYRLSLTNHGPTPVKEGSKDPRGGIFDAVFTRGDQSKLLTSRHDLKNKTLKEISDLIKQELTEGKALALSHTYANVRINHVINLWGADFDSNGNLEAIYVTDSDSNASIGMKKYFVGVNSAGKVAISAKEIEDDNIGAQVLGLFTLSTGQDIWNQTNLEHHHHHH
- Enzyme Activity Endpoint Assay: Fab′2: 1250 ng/µL
- Enzyme Activity Endpoint Assay: Fc: 324 ng/µL
- Enzyme Activity Endpoint Assay: IgG: 0 ng/µL
- Enzyme Activity Endpoint Assay: scIgG: 0 ng/µL

B7: PRT-614 (protein)
chain: MQITSVWTKGVKPLTPEQFRYNNEDVIHAPYLAHQGWYDITKAFDGKDNLLCGAATAGNMLHWWFDQNKTEIEAYLSKHPEKQKIIFNNQELFDLRAAIDTKDSQTNSQLFNYFRDKAFPNLSARQLGVMPDLVLDMFINGYYLNVFKTQSTDVNRPYQDKDKRGGIFDDVFTRGDQTTLLTARHDLKNGGLNDISTIIKQELTEGRALALSHTYANVSISHVINLWGADFNAEGNLEAIYVTDSDANASIGMKKYKVGINAHGHVAISAKKIEGENIGAQVLGLFTLSSGKDIWQKLSLEHHHHHH
- Enzyme Activity Endpoint Assay: Fab′2: 0 ng/µL
- Enzyme Activity Endpoint Assay: Fc: 0 ng/µL
- Enzyme Activity Endpoint Assay: IgG: 0 ng/µL
- Enzyme Activity Endpoint Assay: scIgG: 0 ng/µL

B8: PRT-662 (protein)
chain: B7 chain with K12T, I27F, D100N, D170A, G190K, I198L, K257F, H263S
- Enzyme Activity Endpoint Assay: Fab′2: 8 ng/µL
- Enzyme Activity Endpoint Assay: Fc: 13 ng/µL
- Enzyme Activity Endpoint Assay: IgG: 0 ng/µL
- Enzyme Activity Endpoint Assay: scIgG: 0 ng/µL

B9: PRT-453 (protein)
chain: MVTSVWTKGVTPPANFTQGEDVFHAPYKANQGWYDITKTFNGKDDLLCGAATAGNMLHWWFDQNKDQIEAYLKEHPEKQKINFNGEQMFDVKEAIDTKDDQTNSKLFEYFKEKAFPYLSTKHLGVFPDHVLDMFINGYRLSLTNHGPTPVKEGSKDPRGGIFDAVFTRGDQSKLLTSRHDLKNKTLKEISDLIKQELTEGKALALSHTYANVRINHVINLWGADFDSNGNLEAIYVTDSDSNASIGMKKYFVGVNSAGKVAISAKEIEDDNIGAQVLGLFTLSTGQDIWNQTNLEHHHHHH
- Enzyme Activity Endpoint Assay: Fab′2: 1620 ng/µL
- Enzyme Activity Endpoint Assay: Fc: 607 ng/µL
- Enzyme Activity Endpoint Assay: IgG: 17 ng/µL
- Enzyme Activity Endpoint Assay: scIgG: 0 ng/µL

B10: PRT-493 (protein)
chain: MVTSVWTKGVTPPTNFTYGEDVLHAPYVANQGWYDITKTFNGKDNLLCGAATAGNMLHWWFDQNKEQIENYLKKHPEKQKIIFNNQELFDLKAAIDTKDSQLDSKLFEYFKEKAFPYLSTKHLGVFPDHVIDMFINGYRLSLTNHGPTPVKRGSKDKRGGIFDAVFTRGVQSKLLTNRHDLKNKTLKEISDLIKQELTEGKALGISHTYANVRINHVINLWGADFDAEGNLEAIYVTDSDTNASIGMKKYFVGVNSNGKVAISAKEIEEDNIGAQVLGLFTLSTGQDIWNQTNLEHHHHHH
- Enzyme Activity Endpoint Assay: Fab′2: 1170 ng/µL
- Enzyme Activity Endpoint Assay: Fc: 412 ng/µL
- Enzyme Activity Endpoint Assay: IgG: 0 ng/µL
- Enzyme Activity Endpoint Assay: scIgG: 0 ng/µL

B11: PRT-523 (protein)
chain: MITSVWTKGVTPPTDFIKGEDVFHAPYKAGQGWYDITKTFNGKDNLLCGAATAGNMLHWWFDQNKEEIEAYLKKHPEKQKIIFNNQELFDLKAVINTKDSQTNSALFNYFKDKAFPNLSARRLGVFPDLVLDMFINGYYLNVYKTQTTDVNRTYQTKDRRGGIFDAVFTRGVQSKLLTERHDLKNKTLKEISDLIKQELTEGKALGLSHTYANVRINHVINLWGADFDSNGNLEAIYVTDSDTNASIGMKKYFVGVNSAGKVAISAKEIKEDNIGAQVLGLFTLSTGQDIWNQTNLEHHHHHH
- Enzyme Activity Endpoint Assay: Fab′2: 17 ng/µL
- Enzyme Activity Endpoint Assay: Fc: 24 ng/µL
- Enzyme Activity Endpoint Assay: IgG: 0 ng/µL
- Enzyme Activity Endpoint Assay: scIgG: 0 ng/µL

B12: PRT-519 (protein)
chain: MVTSVWTKGVTPPTDFIKGEDVFHAPYKAGQGWYDITKTFNGKDNLLCGAATAGNMLHWWFDQNKEYIEAYLKKHPEKQKIIFNNQELFDLKAAINTKGSQKNSELFNYFRDKAFPNLSARRLGVFPDLVLDMFINGYYLNVTKTQTTDVNRTYQEKDKRGGIFDAVFTRGVQSKLLTSRHDLKNKGLKEISDLIKQELTEGKALGLSHTYANVRINHVINLWGADFDSDGNLKAIYVTDSDTNASIGMKKYFVGVNSAGKVAISAKEIKEDNIGAQVLGLFTLSTGQDIWNQTNLEHHHHHH
- Enzyme Activity Endpoint Assay: Fab′2: 0 ng/µL
- Enzyme Activity Endpoint Assay: Fc: 17 ng/µL
- Enzyme Activity Endpoint Assay: IgG: 0 ng/µL
- Enzyme Activity Endpoint Assay: scIgG: 0 ng/µL

B13: PRT-471 (protein)
chain: MVTSVWTKGVTPPTDFIYGEDVLHAPYKAGQGWYDITKAFDGGDDLLCGAATAGNMLHWWFDQNKEQIENYLKKHPEKQKINFNGEQMFDVKEAIDTKDSQTNSELFNYFKEKAFPYLSTKHLGVFPDHVIDMFINGYRLSLTNHGPTPVKRGSKDPRGGIFDAVFTRGDQSKLLTNRHDFKEKTLKEISDLIKQELTEGKALGISHTYANVRINHVINLWGADFDAEGNLEAIYVTDSDSNASIGMKKYFVGVNSNGKVAISAKEIEEDNIGAQVLGLFTLSTGQDIWNQTNLEHHHHHH
- Enzyme Activity Endpoint Assay: Fab′2: 1110 ng/µL
- Enzyme Activity Endpoint Assay: Fc: 357 ng/µL
- Enzyme Activity Endpoint Assay: IgG: 0 ng/µL
- Enzyme Activity Endpoint Assay: scIgG: 0 ng/µL

B14: PRT-481 (protein)
chain: B13 chain with G153Q, S154E, T167G, S172T, F181L, E183N, D287K, Q291K
- Enzyme Activity Endpoint Assay: Fab′2: 1380 ng/µL
- Enzyme Activity Endpoint Assay: Fc: 429 ng/µL
- Enzyme Activity Endpoint Assay: IgG: 65 ng/µL
- Enzyme Activity Endpoint Assay: scIgG: 0 ng/µL

B15: PRT-514 (protein)
chain: MITSVWTKGVTPPTDFIKGEDVFHAPYKAGQGWYDITKAFDGGDDLLCGAATAGNMLHWWFDQNKEEIEAYLKKHPEKQKIMFGDQELLDVRKVINTKDSQTNSALFNYFKDKAFPNLSARRLGVMPDLVLDMFINGYYLNVYKTQTTDVNRQEQTKDRRGGIFDAVFGRGDQTKLLTERHDFKEKTLNEISQLIKQELTEGKALGLSHTYANVRINHVINLWGADFDAEGNLEAIYVTDSDSNASIGMKKYFVGVNSAGKVAISAKEIKEDNIGAQVLGLFTLSTGQKIWNKTNLEHHHHHH
- Enzyme Activity Endpoint Assay: Fab′2: 64 ng/µL
- Enzyme Activity Endpoint Assay: Fc: 37 ng/µL
- Enzyme Activity Endpoint Assay: IgG: 0 ng/µL
- Enzyme Activity Endpoint Assay: scIgG: 0 ng/µL
